One assay deals with T1, 321-500.
T1 construct: Expressed in E. coli
T1 GST fusion polypeptide: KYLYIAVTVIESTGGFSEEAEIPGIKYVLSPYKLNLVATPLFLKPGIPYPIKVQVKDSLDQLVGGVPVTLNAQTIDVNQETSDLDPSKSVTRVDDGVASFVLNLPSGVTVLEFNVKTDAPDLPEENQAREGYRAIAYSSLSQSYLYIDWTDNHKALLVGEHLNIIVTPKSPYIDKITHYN
Kind of assay: Western blot of E. coli lysates expressing GST-fused C5 beta-chain fragments. (Immunoblotting shows a protein as a band on a membrane.)

The target in a further assay is T2, 161-340.
T2 construct: Expressed in E. coli
T2 GST fusion polypeptide: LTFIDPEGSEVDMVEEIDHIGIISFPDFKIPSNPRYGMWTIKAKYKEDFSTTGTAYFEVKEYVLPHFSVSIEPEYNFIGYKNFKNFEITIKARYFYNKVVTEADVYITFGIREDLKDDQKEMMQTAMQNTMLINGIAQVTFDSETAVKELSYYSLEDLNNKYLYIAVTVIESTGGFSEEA
The assay is described as above.

A further assay concerns the target T3, 481-660.
T3 construct: Expressed in E. coli
T3 GST fusion polypeptide: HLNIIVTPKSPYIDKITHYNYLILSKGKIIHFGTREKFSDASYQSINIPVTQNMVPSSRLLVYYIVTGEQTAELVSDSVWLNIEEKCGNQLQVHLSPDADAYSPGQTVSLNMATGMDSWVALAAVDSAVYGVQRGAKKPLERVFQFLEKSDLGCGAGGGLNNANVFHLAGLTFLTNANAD
The assay is described as above.

Assay [1] has as its target T4, C5 peptide 52-124 fused to GST-tag (human, UniProt P01031 52-124).
T4 construct: not shown: GST-tag (glutathione S-transferase); vector and linker not restated
Kind of assay: summary drawing of the binding reactions to C5 beta-chain fragments.

Assay [2] concerns the target T5, C5 peptide 33-108 fused to GST-tag (human, UniProt P01031 33-108).
T5 construct: not shown: GST-tag (glutathione S-transferase); vector and linker not restated
The description is as above.

Assay [3] concerns the target T6, C5 peptide 33-111 fused to GST-tag (human, UniProt P01031 33-111).
T6 construct: not shown: GST-tag (glutathione S-transferase); vector and linker not restated
The description is as above.

The target in assay [4] is T7, C5 peptide 45-124 fused to GST-tag (human, UniProt P01031 45-124).
T7 construct: not shown: GST-tag (glutathione S-transferase); vector and linker not restated
Described as above.

In assay [5] the target is T8, C5 peptide 45-111 fused to GST-tag (human, UniProt P01031 45-111).
T8 construct: not shown: GST-tag (glutathione S-transferase); vector and linker not restated
The description is as above.

Assay [6] concerns the target T9, recombinant cynomolgus monkey C5 (cynomolgus monkey, UniProt P01031 20-1676 (human entry), limits assumed).
T9 construct: also called cynoC5
T9 chain: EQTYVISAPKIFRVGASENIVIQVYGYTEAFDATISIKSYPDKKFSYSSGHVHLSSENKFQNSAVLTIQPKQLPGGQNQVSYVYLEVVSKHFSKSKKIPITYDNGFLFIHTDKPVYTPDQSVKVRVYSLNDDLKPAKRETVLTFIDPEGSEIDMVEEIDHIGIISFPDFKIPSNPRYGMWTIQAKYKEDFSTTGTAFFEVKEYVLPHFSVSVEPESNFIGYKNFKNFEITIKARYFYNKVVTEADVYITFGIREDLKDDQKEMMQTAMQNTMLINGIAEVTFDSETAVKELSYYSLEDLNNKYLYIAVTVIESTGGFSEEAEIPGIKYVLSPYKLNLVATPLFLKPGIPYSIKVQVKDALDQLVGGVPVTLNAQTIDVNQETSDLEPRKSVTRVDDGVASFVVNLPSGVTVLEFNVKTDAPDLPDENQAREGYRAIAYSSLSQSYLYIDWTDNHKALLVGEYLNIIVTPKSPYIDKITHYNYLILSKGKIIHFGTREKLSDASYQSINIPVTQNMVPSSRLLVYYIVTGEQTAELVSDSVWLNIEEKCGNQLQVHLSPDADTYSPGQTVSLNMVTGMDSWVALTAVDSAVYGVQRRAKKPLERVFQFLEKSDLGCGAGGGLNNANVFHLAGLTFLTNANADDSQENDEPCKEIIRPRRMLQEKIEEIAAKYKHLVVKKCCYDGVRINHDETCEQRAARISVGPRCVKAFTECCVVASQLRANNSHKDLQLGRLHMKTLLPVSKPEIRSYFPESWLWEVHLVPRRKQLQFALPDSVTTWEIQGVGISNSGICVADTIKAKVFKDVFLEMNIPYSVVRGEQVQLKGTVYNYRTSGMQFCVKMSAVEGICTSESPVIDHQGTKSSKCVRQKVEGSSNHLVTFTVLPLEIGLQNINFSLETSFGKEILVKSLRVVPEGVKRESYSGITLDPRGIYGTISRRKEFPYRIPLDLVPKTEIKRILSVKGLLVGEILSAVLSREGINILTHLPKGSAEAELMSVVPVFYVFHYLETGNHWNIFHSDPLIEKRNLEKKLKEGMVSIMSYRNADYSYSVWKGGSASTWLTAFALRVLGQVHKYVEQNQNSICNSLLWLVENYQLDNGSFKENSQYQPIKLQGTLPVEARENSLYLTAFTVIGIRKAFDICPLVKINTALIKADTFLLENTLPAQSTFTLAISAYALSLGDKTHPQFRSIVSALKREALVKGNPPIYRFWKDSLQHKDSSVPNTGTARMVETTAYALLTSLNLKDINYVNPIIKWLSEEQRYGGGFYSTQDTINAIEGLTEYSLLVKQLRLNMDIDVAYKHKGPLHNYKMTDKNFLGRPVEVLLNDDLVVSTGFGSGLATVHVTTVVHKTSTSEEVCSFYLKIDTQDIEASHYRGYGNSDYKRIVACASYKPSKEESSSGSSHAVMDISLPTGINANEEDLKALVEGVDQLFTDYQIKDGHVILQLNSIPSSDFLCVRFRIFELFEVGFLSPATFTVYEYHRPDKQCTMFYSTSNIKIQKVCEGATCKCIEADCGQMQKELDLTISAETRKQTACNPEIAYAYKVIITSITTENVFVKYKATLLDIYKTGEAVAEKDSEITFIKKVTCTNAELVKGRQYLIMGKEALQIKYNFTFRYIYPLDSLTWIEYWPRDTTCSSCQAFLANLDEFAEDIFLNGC
Kind of assay: SPR (Biacore), 37C, pH 7.4, Ab captured on ProA/G. In general terms: SPR reads the build-up and loss of mass on a sensor chip optically.
Description: To observe the cross-reactivity of anti-C5 antibodies against human C5 (hC5) and cynomolgus monkey C5 (cynoC5), BIACORE® kinetics analysis was performed.

Residue numbers refer to the chain shown, from its start.

The Kd is the concentration at which binding is half-saturated.

T7 sequence (P01031 45-124): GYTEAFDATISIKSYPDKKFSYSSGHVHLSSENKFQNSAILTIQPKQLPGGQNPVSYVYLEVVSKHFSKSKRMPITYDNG
T8 sequence (P01031 45-111): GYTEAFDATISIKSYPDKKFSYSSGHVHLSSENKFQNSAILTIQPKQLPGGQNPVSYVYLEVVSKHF
T6 sequence (P01031 33-111): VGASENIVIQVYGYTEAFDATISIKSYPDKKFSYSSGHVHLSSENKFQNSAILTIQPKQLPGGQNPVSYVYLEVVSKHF
T5 sequence (P01031 33-108): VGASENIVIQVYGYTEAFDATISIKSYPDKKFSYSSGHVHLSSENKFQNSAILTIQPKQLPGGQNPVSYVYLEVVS
T4 sequence (P01031 52-124): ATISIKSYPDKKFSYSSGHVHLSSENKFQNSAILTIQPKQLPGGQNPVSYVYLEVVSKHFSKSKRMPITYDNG
Description for 161-340: (§1) Anti-C5 monoclonal antibodies (MAbs) were tested for binding to C5 β-chain-derived peptides in Western blot analysis. […] The E. coli samples were harvested after incubation with 1 mM Isopropyl β-D-1-thiogalactopyranoside (IPTG) for 5 hours at 37° C., and centrifuged at 20000×g for 1 min to obtain pellets.
Description for 321-500: as §1
Description for 481-660: as §1

B1: CFA0666 (antibody, V domains shown)
VH: QSVEESGGRLVTPGTPLTLTCTVSGFSLSTYAMGWVRQAPGKGLEWIGTIDTGDNSFYANWAKGRFTISKTSTTVDLKITSPTAEDTATYFCARNDGSVYNLFNLWGPGTLVTVSS
VL: DVVMTQTPASVSAAVGGTVTIKCQASENIYSALSWYQQKPGLRPRLLIYYASTLASGVPSRFKGSRSGTEFTLTISDLECADAATYYCQQYYDINSVDNTFGGGTKVVVE
notes: Chimeric, rabbit V regions; also called CFA0666-F760G4
As to B1, the binding result (with 321-500; in the assay with 161-340; with 481-660; in assay [1]; in assay [2]; in [3]) was “no binding” throughout. In addition, the binding result in [4] and in assay [5] was “no binding” in each case. Moreover, the Kd in [6] worked out at 1.57 nM.

B2: CFA0599 (antibody, V domains shown)
VH: QSVEESGGRLVTPGTPLTLTCTVSGLSLSDNTMTWVRQAPGKGLEWIGIISFGGDAYYASWAKGRFPISKTSTTVDLRITSPTTEDTATYFCARVGAGNIFWYFDLWGPGTLVTVSS
VL: AYDMTQTPASVEVSVGGTVTIKCQASESIYSALAWYQQKPGQPPKLLIYSASTLASGVPSRFKGSGSGTEYTLTISDLECADAATYYCQQYYSSTNVHNSFGGGTTVVVE
notes: Chimeric, rabbit V regions; also called CFA0599-F760G4
On to B2, for which the binding result (with 321-500; with 161-340; in the assay with 481-660; in assay [1]; in assay [2]; in assay [3]) was “no binding” throughout. The binding result in assay [4] and in assay [5] was “no binding” throughout. Further, the Kd in assay [6] was determined as 4.33 nM.

B3: CFA0501 (antibody, V domains shown)
VH: QSVEESGGRLVTPGTPLTLTCTASGFSLSSYYMNWVRQAPGKGLEWIGMIYGSGATYYASWAKGRFTISKTSSTTVDLKMTSLTTEDTATYFCARQIYSGDNNDNFWGPGTLVTVSS
VL: AYDMTQTPASVEVAVGGTVTINCQASESISNWLAWYQQKPGQRPKLLIYRASTLASGVSSRFKGSGSGTQFTLTISGVECDDAATYYCQQDYSSSNVDNTFGGGTKVVVE
notes: Chimeric, rabbit V regions; also called CFA0501-F760G4
Turning to B3, the binding result (in the assay with 321-500; with 161-340; with 481-660; in assay [1]; in assay [2]; in assay [3]) was “no binding” in each case. For the same molecule, the binding result in assay [4] and in [5] was “no binding” in each case. The Kd in [6] amounted to 5.88 nM.

B4: CFA0538 (antibody, V domains shown)
VH: B3 VH
VL: B3 VL with K106T
notes: Chimeric, rabbit V regions; also called CFA0538-F760G4
On to B4, for which the binding result (with 321-500; with 161-340; with 481-660; in assay [1]; in assay [2]; in assay [3]) was “no binding” in each case. Further, the binding result in [4] and in assay [5] was “no binding” in each case. The dissociation constant (Kd) in assay [6] stood at 5.44 nM.

The values are drawn from patent US20180002415A1 (Chugai, published 2018).
